These results are taken from US20090035317A1, “Peptides binding to vascular endothelial growth factor” (priority 2007, published 2009).

Bridge positions count the residues as written; N and C are the ends. Ends that are not written are not given here. A value given as a limit tells only on which side of the number the result lay.

For one assay, the system named is biotinylated VEGF. Put plainly: First order dissociation rate constants (koff) of cell-surface displayed peptides, flow cytometry. It counts as binding. The note with it: peptide displayed on bacterial cell surface; for RT koff: room temperature. As to the method:
(§1) Cells displaying VEGF-binding peptides were first incubated with biotinylated VEGF and allowed to equilibrate at 4° C. After centrifugation, excess VEGF was removed. The cells were then resuspended in buffer, such that the concentration of cells was diluted 1:10, as compared to the VEGF-labeling step. Cells were allowed to incubate in buffer at room temperature or 37° C. for times varying from 5 minutes to 21 hours to allow dissociation of VEGF from the cell surface. After the appropriate amount of time, the cells were placed on ice to stop the dissociation, and streptavidin-phycoerythrin (SAPE) was added for fluorescence labeling. After centrifugation, excess SAPE was removed, and cellular fluorescence was measured by flow cytometry. Fluorescence data as a function of dissociation time was used to determine koff.

Assay [1] relates to VEGF. As to the kind of experiment: Clone characterization: off-rate from VEGF at room temperature (Example 1). In kind it is binding. The note with it: 10 nM VEGF labeling, FIG. 3, FIG. 4. The procedure:
Initial measurements of off-rate were made for each clone in order to narrow down the search for the best binding peptide. Each clone was labeled with 10-nM VEGF. Excess VEGF was washed away, and the protein was allowed to dissociate for 15 and 30 minutes at room temperature. SAPE was added, and secondary labeling was performed on ice. Excel's Regression function was used to calculate koff for each peptide using three time points (0, 15, and 30 minutes) and the standard error for the regression.
Each clone was incubated with 10 nM VEGF and allowed to come to equilibrium. The excess VEGF was washed away, and the cells were separated into 4 aliquots and diluted 1/10 in room temperature PBS. SAPE was added to the appropriate aliquot after 5, 10, 15, and 30 minutes for secondary labeling on ice. The mean fluorescence at these time points was used to determine koff. In most cases, the t=30 minute point could not be incorporated into the regression.
Target sequence in this assay (P15692 207-315 limits assumed): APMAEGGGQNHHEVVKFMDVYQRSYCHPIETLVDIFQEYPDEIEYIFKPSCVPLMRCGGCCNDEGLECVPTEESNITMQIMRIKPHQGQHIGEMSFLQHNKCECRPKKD

Assay [2] relates to VEGF. As to the kind of experiment: Specificity: retention of VEGF binding fluorescence in BSA and serum. The note with it: 10-nM VEGF; serum dilutions; FIG. 5. As to the method:
In addition, measurements of specificity were performed for the four peptides whose off-rate could be calculated. Each clone was incubated with 10-nM VEGF in varying dilutions of BSA and serum followed by secondary labeling with SAPE at the same BSA/serum concentration. It was assumed that a specific peptide would retain more fluorescence upon serum addition than a non-specific peptide. The serum was first prepared by incubation with cells overexpressing the CPXopt template, spinning down the cell pellet and any bacteria-specific proteins bound to them, and removing the supernatant for incubation with the selected clones. Adding BSA up to physiological conditions decreased the mean fluorescence of each clone by an average of ˜40%, seemingly indicating some degree of specificity. […] FIG. 5 gives the fluorescence remaining after serum addition relative to initial fluorescence (at a serum dilution of 1/100), which was taken to be a measure of the specificity of the interaction between the peptide and VEGF. […] Therefore, the change in fluorescence of a gated population of positive binding cells was used to determine the specificity metric. In some cases with undiluted serum, a significant fraction of cells (>˜1%) still fell into this positive, and the fluorescence of this small fraction of cells was used to calculate the specificity. […]
Target sequence in this assay (P15692 207-320 limits assumed): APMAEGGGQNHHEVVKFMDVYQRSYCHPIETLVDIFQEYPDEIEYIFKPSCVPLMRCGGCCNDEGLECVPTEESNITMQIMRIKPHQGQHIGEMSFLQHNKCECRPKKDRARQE

The test system of assay [3] is VEGF. As to the kind of experiment: Equilibrium binding of displayed clones with VEGF at 1 nM and 10 nM. The note with it: displayed on cell surface.
Target sequence in this assay (P15692 207-320 limits assumed): as above
Assay [4] concerns biotinylated recombinant murine VEGF (rmVEGF). Put plainly: Murine cross-reactivity, flow cytometry. In kind it is binding. The note with it: rmVEGF at 25 and 250 nM. As to the method: Cells expressing VEGF-binding peptides were incubated with biotinylated recombinant murine VEGF (rmVEGF). Fluorescence labeling was performed with SAPE as previously described. The first seven clones listed in Table 5 as well as v114 were assayed for cross-reactivity with rmVEGF. All of the ligands analyzed bound rmVEGF at concentrations of 25 and 250 nM, as measured by flow cytometry.
On the technique in general: A flow cytometer gives signals particle by particle.

For assay [5], the target named is T1, VEGF (Homo sapiens, UniProt P15692).
T1 sequence (P15692 214-315 limits assumed): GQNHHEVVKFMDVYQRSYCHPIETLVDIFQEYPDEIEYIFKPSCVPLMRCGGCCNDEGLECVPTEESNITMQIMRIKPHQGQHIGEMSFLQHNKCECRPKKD
The note with it: Fairbrother et al. (1998); read-out: reported equilibrium dissociation constant (KD); cited from earlier work.

Assay [6] has as its target T2, vascular endothelial growth factor (VEGF) (UniProt P15692-4 27-191, limits assumed, biotinylated).
T2 construct: Soluble biotinylated VEGF used to label cells that display the peptides; also called biotinylated VEGF
Put plainly: apparent equilibrium KD measured from the bacterial cell surface, flow cytometry.

Assay [7] addresses T2, vascular endothelial growth factor …. Put plainly: flow cytometry, peptide displayed on bacterial cell surface, dissociation of biotinylated VEGF at 37° C. As to the method:
as §1

The target is the same in assay [8]. As to the kind of experiment: flow cytometry, peptide displayed on bacterial cell surface, dissociation of biotinylated VEGF at room temperature. The procedure: as §1
The target is the same in assay [9]. As to the kind of experiment: flow cytometry competition; soluble v114 premixed with biotinylated VEGF; competitor: displayed L3.F5A.01, compared with displayed L2.F4.04. As to the method:
Biotinylated VEGF was first mixed with various concentrations of soluble v114 peptide (Anaspec); the ratio of soluble peptide to VEGF ranged from ˜2:1 to 5000:1. Cells expressing VEGF binding peptides were then incubated with this VEGF/peptide mixture and allowed to equilibrate at 4° C. After centrifugation, unbound protein/peptide was removed, and the cells were resuspended in SAPE for fluorescence labeling.

Assay [10] has the same target. Put plainly: comparison of 37° C. koff values of Table 5, flow cytometry on displayed peptides. As to the method:
as §1

The target is the same in assay [11]. As to the kind of experiment: comparison of room temperature koff values of Table 5, flow cytometry on displayed peptides. As to the method:
as §1

T2 sequence (P15692 other isoform, or with tags, fused parts or gaps limits assumed): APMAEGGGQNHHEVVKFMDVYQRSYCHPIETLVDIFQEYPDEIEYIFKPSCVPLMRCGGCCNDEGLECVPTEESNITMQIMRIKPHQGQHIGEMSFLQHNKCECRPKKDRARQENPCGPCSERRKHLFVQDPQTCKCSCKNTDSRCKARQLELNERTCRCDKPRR
Sequence of biotinylated VEGF (P15692 207-320 limits assumed): as the sequence (P15692 207-320 limits assumed) above
Sequence of biotinylated recombinant murine VEGF (rmVEGF) (Q00731 205-317 limits assumed): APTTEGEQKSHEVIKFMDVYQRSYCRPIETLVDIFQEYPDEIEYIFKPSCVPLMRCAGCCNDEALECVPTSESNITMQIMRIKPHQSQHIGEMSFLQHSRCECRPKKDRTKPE

“AKRSSYSMWGAMPGGGSGGGNFGYGKWEWDYGKWLEKV [Clone L3.F5A.03, AKRSSYSMWGAMP-GGGSGGG-NFGYGKWEWDYGKWLEKV]”: in the assay on biotinylated VEGF, the “37° C. koff” value came out at 0.0006 s⁻¹ and the RT koff is 4.28e-05 s⁻¹.

Regarding CPVQTMWDWECMRAFIEG [Clone L2.F3B.08], in the assay with biotinylated VEGF, the “37° C. koff” value stood at 0.0042 s⁻¹ and the RT koff was 0.0072 s⁻¹. Also, the “dissociation rate (in words)” value in the assay on VEGF [1] is on record as “good dissociation kinetics”. Besides, the “effect of serum addition on VEGF binding fluorescence” value in the assay on VEGF [2] was “loses more fluorescence upon serum addition than does L2.F4.04”. The “fluorescence labeling when bound to VEGF” value with VEGF [3] is “bright fluorescence signals”.

Regarding “GPGWWLWDWDNLGARRGGL (VEGF-binding peptide) [Clone L2.F3A.10]”, the “fluorescence labeling when bound to VEGF” value in the assay on VEGF [3] is on record as “better labeling”.

Consider “HQQLQYWDWIEAVVHNG (VEGF-binding peptide) [Clone L2.F3A.05]”, for which, in the assay with VEGF [1], the “dissociation rate (in words)” value is recorded as “slow dissociation rates”.

In the case of NFGYGKWEWDYGKWLEKVG [Clone L2.F4.04], in the assay on biotinylated VEGF, the “37° C. koff” value was determined as 0.0013 s⁻¹ and the RT koff amounted to 0.0013 s⁻¹. Moreover, in the assay on VEGF [1], the “dissociation rate (in words)” value is on record as “slow dissociation rates”. In addition, the “fluorescence labeling when bound to VEGF” value in the assay with VEGF [3] is “bright fluorescence signals”.

Take “SKLKTLLWQQGGGSGGGNFGYGKWEWDYGKWLEKV [Clone L3.F6.02, SKLKTLLWQQ-GGGSGGG-NFGYGKWEWDYGKWLEKV]”: in the assay with biotinylated VEGF, the “37° C. koff” value was 0.0014 s⁻¹ and the RT koff turned out to be 0.000291 s⁻¹.

On to “SSKCGRWGETPCLAEGGGSGGGNFGYGKWEWDYGKWLEKVG [Clone L3.F5A.01, SSKCGRWGETPCLAE-GGGSGGG-NFGYGKWEWDYGKWLEKVG]”, for which, in the assay on biotinylated VEGF, the “37° C. koff” value stood at 0.00012 s⁻¹ and the RT koff was 2e-05 s⁻¹.

As for “SYVLKEWSVPSWGKPGGGSGGGNFGYGKWEWDYGKWLEKV [Clone L3.F6.01, SYVLKEWSVPSWGKP-GGGSGGG-NFGYGKWEWDYGKWLEKV]”, in the assay with biotinylated VEGF, the “37° C. koff” value turned out to be 0.00025 s⁻¹ and the RT koff is 0.00011 s⁻¹.

“VEPNCDIHVMWEWECFERL [v114, soluble peptide from Anaspec; positive control]”: the “binding of rmVEGF” value in assay [4] was “bound rmVEGF”. For the same molecule, the Kd at VEGF [5] was 110 nM.

Turning to “VTSRYEMREDGSWKKGGGSGGGNFGYGKWEWDYGKWLEKVG [Clone L3.F5A.02, VTSRYEMREDGSWKK-GGGSGGG-NFGYGKWEWDYGKWLEKVG]”, the “37° C. koff” value with biotinylated VEGF was 0.00074 s⁻¹.

As for “WKELRFWDWEGGNHKKCVT (VEGF-binding peptide) [Clone L2.F3B.12]”, the “dissociation rate (in words)” value with VEGF [1] is on record as “slow dissociation rates”.

B1: L2.F4.04 (peptide)
peptide: NFGYGKWEWDYGKWLEKVG
notes: not shown: CPXopt bacterial display scaffold (carrier)
Broadly, the koff is the first-order rate constant of dissociation. A high value points to a short-lived complex. Take B1: the Kd in assay [6] was found to be 6.1 nM. In addition, the dissociation rate constant (koff) in [7] and in assay [8] was 0.0013 s⁻¹ in each case.

B2: L3.F5A.02 (peptide)
peptide: VTSRYEMREDGSWKKGGGSGGGNFGYGKWEWDYGKWLEKVG
notes: as for B1
As to B2, the Kd in assay [6] came to 2.6 nM. The koff in assay [7] came out at 0.00074 s⁻¹.

Take VEPNCDIHVMWEWECFERL (also called Genentech v114 peptide) [soluble v114 peptide (Anaspec)]: the “fold increase in the concentration of v114 required to block 50% of VEGF binding, bidentate peptide against parent peptide” value in [9] is no less than 5 fold.

B3: L3.F5A.01 (peptide)
peptide: SSKCGRWGETPCLAEGGGSGGGNFGYGKWEWDYGKWLEKVG
notes: also called bidentate peptide L3.F5A.01; not shown: CPXopt bacterial display scaffold (carrier)
With B3, the “fold improvement (slower dissociation) against the monodendate parent peptide L2.F4.04” value is no more than 12 fold in assay [10] and 4 to 65 fold in assay [11]. For the same molecule, the Kd in [6] was 2.1 nM. The figures for the koff in assay [7] and in assay [8] were 0.00012 s⁻¹ and 2e-05 s⁻¹, respectively.

B4: L3.F6.01 (peptide)
peptide: SYVLKEWSVPSWGKPGGGSGGGNFGYGKWEWDYGKWLEKV
modifications: Displayed on the E. coli surface as a fusion to CPXopt; the letters do not carry the scaffold.
notes: Peptide 2 is printed without the final G of L2.F4.04; not shown: CPXopt bacterial display scaffold that carried the peptide on the cell surface
Turning to B4, the Kd in assay [6] stood at 3.5 nM. Besides, the dissociation rate constant (koff) in assay [7] came out at 0.00025 s⁻¹; in assay [8], 0.00011 s⁻¹.

B5: L3.F5A.03 (peptide)
peptide: AKRSSYSMWGAMPGGGSGGGNFGYGKWEWDYGKWLEKV
modifications: Displayed on the E. coli surface as a fusion to CPXopt; the letters do not carry the scaffold.
notes: as for B4
On to B5, for which the Kd in [6] came to 3.7 nM. The values for the koff in assay [7] and in assay [8] were 0.0006 s⁻¹ and 4.28e-05 s⁻¹, respectively.

B6: L2.F3B.08 (peptide)
peptide: CPVQTMWDWECMRAFIEG
modifications: disulfide 1-11 (inferred)
notes: as for B1
For the molecule B6, the Kd in assay [6] is 17.8 nM. Also, the values for the koff in assay [7] and in assay [8] were 0.0042 s⁻¹ and 0.0072 s⁻¹, respectively.

B7: L3.F6.02 (peptide)
peptide: SKLKTLLWQQGGGSGGGNFGYGKWEWDYGKWLEKV
modifications: Displayed on the E. coli surface as a fusion to CPXopt; the letters do not carry the scaffold.
notes: as for B4
For B7, the Kd in assay [6] stood at 5 nM. In assay [11], the “fold improvement (slower dissociation) against the monodendate parent peptide L2.F4.04” value was in the range of 4 to 65 fold. Further, the values for the koff in [7] and in [8] were 0.0014 s⁻¹ and 0.000291 s⁻¹, respectively.
